Measured values published in the supplement of paper PMC10567573.

B1: HNF4A (parent)
chain: RFSRQCVVDKDKRNQCRYCRLKKC

Variants of: B1
Experiment: protein stability index of a GFP-peptide fusion (GPS, HEK-293T) (PSI 1-6); higher = more stable
Conditions: c terminus: a fixed tail appended
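Further: lentivirally expressed fusions sorted by FACS into six bins by GFP to DsRed ratio, PSI derived from sequencing read proportions per bin multiplied by bin number.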

Point of comparison: RFSRQCVVDKDKENQCRYCRLKKC, protein stability index 2.02. Against it:
- RFSRQCVVDKPKRNQCRYCRLKKC — higher, 2.9
- RFSRQCVVDKQKRNQCRYCRLKKC — higher, 2.63
- RFSRQCVVDKKKRNQCRYCRLKKC — higher, 2.4
- RFSRQCVVDKMKRNQCRYCRLKKC — higher, 2.65
- RFSRQCVVDKVKRNQCRYCRLKKC — higher, 2.37
- RFSRQCVVDKYKRNQCRYCRLKKC — higher, 2.45
- RFSRQCVVDKFKRNQCRYCRLKKC — higher, 2.63
- RFSRQCVVDKNKRNQCRYCRLKKC — higher, 2.4
- RFSRQCVVDKHKRNQCRYCRLKKC — higher, 2.97
- RFSRQCVVDKIKRNQCRYCRLKKC — higher, 2.41
- RFSRQCVVDKTKRNQCRYCRLKKC — higher, 2.32
- RFSRQCVVDKSKRNQCRYCRLKKC — higher, 2.04
- RFSRQCVVDKRKRNQCRYCRLKKC — higher, 2.65
- RFSRQCVVDKLKRNQCRYCRLKKC — higher, 2.21
- RFSRQCVVDKGKRNQCRYCRLKKC — higher, 2.55
- RFSRQCVVDKDKRNQLRYCRLKKC — higher, 2.92
- RFSRQCVVDKDKRNQHRYCRLKKC — higher, 3.9
- RFSRQCVVDKDKRNQIRYCRLKKC — higher, 2.93
- RFSRQCVVDKDKRNQGRYCRLKKC — higher, 2.61
- RFSRQCVVDKDKRNQERYCRLKKC — higher, 4.05
- RFSRQCVVDKDKRNQFRYCRLKKC — higher, 2.97
- RFSRQCVVDKDKRNQARYCRLKKC — higher, 2.56
- RFSRQCVVDKDKRNQKRYCRLKKC — higher, 3.1
- RFSRQCVVDKDKRGQCRYCRLKKC — higher, 2.57
- RFSRQCVVDKDKRHQCRYCRLKKC — higher, 3.45
- RFSRQCVVDKDKRVQCRYCRLKKC — higher, 2.6
- RFSRQCVVDKDKRAQCRYCRLKKC — lower, 1.5
- RFSRQCVVDKDKREQCRYCRLKKC — higher, 2.95
- RFSRQCVVDKDKRTQCRYCRLKKC — higher, 2.31
- RFSRQCVVDKDKRYQCRYCRLKKC — higher, 3.62
- RFSRQCVVDKDKRSQCRYCRLKKC — higher, 2.96
- RFSRQCVVDKDKRPQCRYCRLKKC — higher, 2.72
- RFSRQCVVDKDKRFQCRYCRLKKC — higher, 2.16
- RFSRQCVVDKDKRKQCRYCRLKKC — higher, 2.23
- RFSRQCVVDKDKRMQCRYCRLKKC — lower, 1.98
- RFSRQCVVDKDKRIQCRYCRLKKC — higher, 2.39
- RFSRQCVVDKDKRDQCRYCRLKKC — higher, 2.24
- RFSRQCVVDKDKRQQCRYCRLKKC — higher, 2.18
- RFSRQCVVDKDKRWQCRYCRLKKC — higher, 2.27
- RFSRQCVVDKDKRCQCRYCRLKKC — higher, 3.46
- RFSRQCVVDKDKRLQCRYCRLKKC — higher, 2.87
- RFSRQCVVDKDSRNQCRYCRLKKC — lower, 2
- RFSRQCVVDKDYRNQCRYCRLKKC — higher, 2.25
- RFSRQCVVDKDHRNQCRYCRLKKC — higher, 2.93
- RFSRQCVVDKDTRNQCRYCRLKKC — higher, 2.85
- RFSRQCVVDKDLRNQCRYCRLKKC — lower, 1.91
- RFSRQCVVDKDDRNQCRYCRLKKC — higher, 2.13
- RFSRQCVVDKDWRNQCRYCRLKKC — higher, 2.28
- RFSRQCVVDKDCRNQCRYCRLKKC — higher, 2.07
- RFSRQCVVDKDIRNQCRYCRLKKC — higher, 2.54
- RFSRQCVVDKDNRNQCRYCRLKKC — higher, 2.41
- RFSRQCVVDKDGRNQCRYCRLKKC — higher, 2.76
- RFSRQCVVDKDQRNQCRYCRLKKC — higher, 2.52
- RFSRQCVVDKDARNQCRYCRLKKC — lower, 1.51
- RFSRQCVVDKDMRNQCRYCRLKKC — lower, 1.97
- RFSRQCVVDKDFRNQCRYCRLKKC — higher, 2.25
- RFSRQCVVDKDPRNQCRYCRLKKC — higher, 2.76
- RFSRQCVVDKDVRNQCRYCRLKKC — lower, 1.99
- RFSRQCVVDKDKRNLCRYCRLKKC — higher, 2.78
- RFSRQCVVDKDKRNDCRYCRLKKC — higher, 2.89
- RFSRQCVVDKDKRNPCRYCRLKKC — higher, 2.21
- RFSRQCVVDKDKRNHCRYCRLKKC — lower, 1.96
- RFSRQCVVDKDKRNECRYCRLKKC — higher, 2.34
- RFSRQCVVDKDKRNSCRYCRLKKC — higher, 2.79
- RFSRQCVVDKDKRNTCRYCRLKKC — higher, 2.68
- RFSRQCVVDKDKRNICRYCRLKKC — higher, 2.33
- RFSRQCVVDKDKRNVCRYCRLKKC — higher, 2.52
- RFSRQCVVDKDKRNRCRYCRLKKC — higher, 2.73
- RFSRQCVVDKDKRNMCRYCRLKKC — higher, 2.48
- RFSRQCVVDKDKRNACRYCRLKKC — higher, 2.47
- RFSRQCVVDKDKRNFCRYCRLKKC — higher, 2.12
- RFSRQCVVDKDKRNGCRYCRLKKC — higher, 2.37
- RFSRQCVVDKDKRNYCRYCRLKKC — higher, 2.48
- RFSRQCVVDKDKRNCCRYCRLKKC — higher, 2.8
- RFSRQCVVDKDKRNKCRYCRLKKC — higher, 2.85
- RFSRQCVVDKDKWNQCRYCRLKKC — lower, 1.93
- RFSRQCVVDKDKGNQCRYCRLKKC — higher, 2.21
- RFSRQCVVDKDKHNQCRYCRLKKC — higher, 2.98
- RFSRQCVVDKDKLNQCRYCRLKKC — higher, 2.22
- RFSRQCVVDKDKMNQCRYCRLKKC — higher, 3.02
- RFSRQCVVDKDKKNQCRYCRLKKC — higher, 2.4
- RFSRQCVVDKDKQNQCRYCRLKKC — higher, 2.83
- RFSRQCVVDKDKNNQCRYCRLKKC — higher, 3.03
- RFSRQCVVDKDKDNQCRYCRLKKC — higher, 3.2
- RFSRQCVVDKDKFNQCRYCRLKKC — higher, 2.56
- RFSRQCVVDKDKANQCRYCRLKKC — higher, 2.11
- RFSRQCVVDKDKPNQCRYCRLKKC — lower, 1.84
- RFSRQCVVDKDKTNQCRYCRLKKC — higher, 2.99
- RFSRQCVVDKDKCNQCRYCRLKKC — higher, 3.06
- RFSRQCVVDKDKSNQCRYCRLKKC — higher, 2.65
- RFSRQCVVDKDKVNQCRYCRLKKC — higher, 2.7
- RFSRQCVVDKDKYNQCRYCRLKKC — higher, 2.76
- RFSRQCVVDKDKINQCRYCRLKKC — higher, 2.38
